# The nanobody polyreactivity screen of Harvey et al. (2022)
# Assay: yeast display, Sf9 membrane polyspecificity reagent, FACS + sequencing; frameworks hold sequencing errors
# Outline: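 A synthetic nanobody library was expressed on Saccharomyces cerevisiae BJ5465 by galactose induction for 36–48 hours. The library was stained for 1 hour at 4 °C with 10% biotinylated, detergent-solubilized Sf9 membrane reagent and enriched with streptavidin microbeads before FACS. Low and high (top ~1%) gates were set on anti-HA fluorescence for expression and streptavidin fluorescence for reagent binding, and each polyreactivity label reflects the gate of origin.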
row,Sequence,polyreactivity (PSR sort gate)
1,QVQLVDSGGGLVQAGGSLRLSCAASVRIFYEYAMGWYRKAPGKERQFVASISRTDGGTYYADSVKGRFTISRDNAKNTVYLQMNSLKPEENAVYYCATRAYYNTEVYYWGQGTQVTVSS,high polyreactivity
2,QVQLVDSGGGLVQAGGSLRLSCAAYGSTFGPYAMGWYRQAPGKERELVAAIRVSGGSTYYADSVKGRFTISRDNAKNTVYLQMNSLKPEDTAVYYCIRDVMTFNYDYWGQGTQVTVSS,low polyreactivity
3,QVQLVDSGGGLVQAGGSLRLSCDASGSTFLYYAMGWYRQAPGKERELVARITSRFGRTYYADSVKGRFTISRDNAKNTVYLQMNSLKPEDTAVYYCAAYPDYSYYYWGHGTQVTVSS,high polyreactivity
4,QVQLVDSGGGLVQAGGSLRLSCDATGRIFRLYAMGWYRQAPGKERELVAAISWRGSSTNYADSVKGRFTISRDNAKNTVYLQRNSLKPEDTAVYYCAAPGRGGYYYWGQGTQVTVSS,high polyreactivity
5,QVQLVDSGGGLVQAGGSLRLSCPASGRIFGRNAMAWYRQAPGKERELVAAISSSGGTYYADSVKGRFTISRDNAKNTVYLQMNSLKPEDTAVYYCAADPLYYWWRGDYWGQGTQVTVSS,high polyreactivity
6,QVQLVDSGGGLVQAGGSLRLSCSASGFTFKYYAMGWYRQAPGKERELVASINWSGGRTSYADSVKGRFTISRDNAKNTVYLQMNSQKPEDTAVYYCARTPAGRGEYWGQGTQVTVSS,low polyreactivity
7,QVQLVDSGGGLVQAGGSLRLSFAASGITFFYYAMGWYRQAPGKERELVAAISTSGGRTYYADSVKGRFTISRDNAKNTVYLQMNSLKPEDTAVYYSAAQSGWLRYYYWGQGTQVTVSS,high polyreactivity
8,QVQLVDSGGGLVQAGGSLRLSSAASGRTFDYYAMGWYRQAPGKERELVAAITKDGGSTYYADSVKGRFTISRDNAKNTVFLQMNSLKPEDTAVYYCAADGPPLYYDPIHYDYWGQGTQVTVSS,low polyreactivity
9,QVQLVDSGGGLVQAGGSLRLSWAASGITFYTYTMGWYRQAPGKERELVAAISRRGGGTYYADSVKGRFTISRDNGKNTVYFQMNILKTEVTAVYYCAKDWYGRYYYWGQGTEVTVSS,high polyreactivity
10,QVQLVDSGGGLVQAGGSLRLTCAACGSIFVNNSMGWSRQATGKQRELVAAISSRSSRTFYADSVKGRFTISRDNEKNTVFLQMNSLKPEDNAVYYCAVKKRAPDGDYWGLGTQVTVSS,high polyreactivity
11,QVQLVDSGGGLVQAGGSLRLTCAASGSTIYWYAMGWYRQAPGKERELVAAISSSGSTKYADSVKGRFTISRDNAKNNVYLQINSLKPEDTAVYYCAADVEYDRDVPQQVYVSDDYWGQGTKVTVSS,low polyreactivity
12,QVQLVDSGGGLVQAGGSLSLSCAASGRTFNWYTMGWYRQAPGKEMELVARINGRGGSTYYADSVKGRFTISRDNAKNTVYLQMNSLKPEDTAVYYCNKPHRWPQAGYGYWGQGTQVTVSS,high polyreactivity
13,QVQLVDSGGGLVQAGGSLSLSCAASGSIFNVYGMGWYRQAPGKERELVARINSRGGITYYADSVKGRFTISRDNAKNTVYLQMNSLKPEDTAVYYCATDTQDLQGYSWFDYWGQGTQVTVSS,high polyreactivity
14,QVQLVDSGGGLVQAGGSLSLSCAASGSTFTDYDMGWYRQAPGKERELVAAITSGGSTNYADSVKGRFTISRDNAKKTVYLQMNSLNPEATAVYYCAAADADRKYDYWGQGTQVTVSS,low polyreactivity
15,QVQLVDSGGGLVQAGGSLSLSCAASGSTYAYYAMGWYRQAPGKVRELVAGITWTGGSTYYADSVKGRFTISRDNAKNTVYLQMNSLKPEDTAVYYCAVTYPYGYEYDHWGQGTQVTVSS,low polyreactivity
16,QVQLVDSGGGLVQAGGSLSLSCAASGYTMGYYTMGWYIEAPGKERELVATISRRGGSTSYADSVKGRFTISRDNAKNTVYLQMNSLKPEDTAVYYCNAQTSGRVGSQYYSYDGSWGQCTQVTVSS,high polyreactivity
17,QVQLVDSGGGLVQAGGSLSLSCGASGIIFVSNAMGWYRQAPGKERELVATINWSDDSTYYADSVKGRFTISRDNAKNTVYLQMNSLKPEDTAVYYCYWRQGTQVTVSS,low polyreactivity
